The data set can be described thus: label from the status in PepcDB records.
Consider “MFNIADGGFTELHTLWLNEEKAAVPGREYEIWHRRHDYWLLAGIVTHGYGRWQDIQNDIRFAIINEPFKMDVGKGNFLEIKNKFLARRFKLLEQALVIEEQLRRAAYLNLAQDPSHPAMSLNARFAEVECLAESHQHLSKESLAGNKPANAVLHKVLNQLEELLSDMKSDVSRLPATLARIPPVAQRLQMSERSILSRLA”, for which the protein production result is given as “failed”.
The value for “MNEVKESLRSIEQKYKLFQQQQFTFIAALEHCRENAHDKIRPISSIEQVQSYMEHYCNNSTHRRILIMFMDICSELSKLCQHFEALHSGTPVTNSLLEKCKTLVSQSNDLSSLRAKYPHEVVNHLSCDEARNHYGGVVSLIPIVLDFMKEWIAHSEKLPRKVLQHGTT” was “failed”.
The value for “MQVFIMRHGDAALDAASDSVRPLTTNGCDESRLMANWLKGQKVEIERVLVSPFLRAEQTLEEVGDCLNLPSSAEVLPELTPCGDVGLVSAYLQALTNEGVASVLVISHLPLVGYLVAELCPGETPPMFTTSAIASVTLDESGKGEFNWQMSPCNLKMAKAI” was “not failed”; that for “TDQAITFDDVLLVPSYNHHESRRVVETTSTDRLGKLTLNLPVISANMDTITESNMANFMHSKGAMGALHRFMTIEENIQEFKKCKGPVFVSVGCTENELQRAEALRDAGADFFCVDVAHAHAKYVGKTLKSLRQLLGSRCIMAGNVATYAGADYLASCGADIIKAGIGGGSVCSTRIKTGFGVPMLTCIQDCSRADRSIVADGGIKTSGDIVKALAFGADFVMIGGMLAGSAPTPGEVFQKDDGSKVKRYRGMASREAQEAFLGQMHEWKTAEGVATEVPFKENPDGIIADIIGGLRSGLTYAGADSISELQRKLNYVIVTQAGRIESLPHKLLEG” was “not failed”.
The value for “SLDDHTRDPTVKAPDGNPSGWRTDGQWEHETLRRAVVHGVRLYNSGEFHESHDCFEDEWYNYGRGNTESKFLHGMVQVAAGAYKHFDFEDDDGMRSLFRTSLQYFRGVPNDYYGVDLLDVRTTVTNALSDPSALHGWQIRLDGEYPTCRPEDIEFAESLEH” was “not failed”; that for “MKFQLYIQPKLDILQGNIVEYEILLRDDSEVPRFPLSELEAVLADEELYLTFCEWFSDAFFDVLKKYPNDRFAINIAPQQLFYMETLHMLDKLRSESHRITIEMTEDIFDVPAHKRHLNADDKDAFILNKIKIIHGLGYHVAVDDVGCGLNSLERVLSYLPYIIELKFSLIHFNNIDLEDLLLFIKAWANFAHKNNLDFVVEGIETKETMAILESHGVSIFQGYLVNKPFPV” was “failed”; that for “MRYRNSRQVTGVVKNVTVSQSCGKWYISIQAESEVSTPVHPSASMVGLDAGVAKLASLSDGTVFEPVNSFQKNQKTLARLQRQLSRKVKFSNNWQKQKRKIQRLHSCIANIRRDYLHKVTTTVSKNHVMIVIEDLKVSNMSKSAAGTVSQPGRNVRAKSGLNRSILDQGWYEMRRQLEYKQLWRGGQVLAVPPAYTSQRCACCGHTAKENRLSQSKFRCQVCGYTANADVNGARNILAAGHAVLACGEMVQSGRSLKQEPTEMIQATALEHHHHHH” was “failed”.
Regarding “MMNYNTPKVSIVVPSLNSISYIRECIDSILNQTLKDIEILCIDANSTDGTLEVLKNYEKKDKRLRVIISDKKSYGYQMNLGIKEAKGEYLGIVESDDYIKTNMYERLYEIAKKNDCEVVKGDFYILESNKGKYSKITPIDFLYNQIISFKTHPNIFNFQSINPIGIYRLDLLRTNQIKLNETPGASYQDNGLWFQIFALAKSIYFINEAFYMLRRDNPNSSVKSKEKVYCACEEYDFIRDFLKKHPDLEKTLAPICALHRFGNYMFTLERIDERYKLDFLKRFSQDFRKILKDKELDENLFGDGDMKIIYSIVENPENYYFLYMGYCNDMFGKLYFGASERIKWQLSYRIGKLLIDLKNPVQILKFPFKLFLEIKQFKFEQKIYKTTIKFYPNLQLPPLEEYSDYEQALKTKKHLSYILGKSFINNPILFIFKIKKIYKQYKKDISSSKKNIKELSDYDFLLNRHKQIFDYTPDFKCPVTFNEKLIYRILYDRSCIYSFLADKIKMRFYVASALSDNHEYSWDKIDILNEKSILFNNIDDLQDKIFETNKCKYLPKIYGIYKNIYDINFNELPNSFVLKTNHDCGGYVIVENKQEFLRDTVVFSNAMKKLKKHLEWNYYSVFREWHYKDIEPRVFAEELLLGENKKPADTYKFHIFDKENLSNNFIQVTTDRFDNYQRAMFDLSWNLAPFNFMYDNKNVTMIPKKPNLLDSMINISLILAKPFDYVRVDLYQFDKKIYIGELTFTHGAAGEKVIPKEWDKKLGDLWRLKRLDNASK”, the protein production entry is “failed”.
The result for “SAESWLRLSGAGPAEEAGPEGGLEEPDALDDSLTSLQWLQEFSILNAKAPALPPGGTDPHGYHQVPGSAAPGSPLAADPACLGQPHTPGKPTSSCTSRSAPPGLQAPPPDDVDYATNPHVKPPYSYATLICMAMQASKATKITLSAIYKWITDNFCYFRHADPTWQNSIRHNLSLNKCFIKVPREKDEPGKGGFWRIDPQYAERLLSGAFKKRRLPPVHIHPAFARQAAQEPSAVPRAGPLTVNTEAQQLLREFEEATGEAGWGAGEGRLGHKRKQPLPKRVAKVPRPPSTLLPTPEEQGELEPLKGNFDWEAIFDAGTLGGELGALEALELSPPLSPASHVDVDLTIHGRHIDCPATWGPSVEQAADSLDFDETFLATSFLQHPWDESGSGCLPPEPLFEAGDATLASDLQDWASVGAFL” reads “failed”; that for “SAAKALKDLKNLPVSERNIDYKTKLLVGKMNGTAEDKPPQNSVPFDHNHPKGDEIEKPEAERVIVEIEYIESKDLNNVTQVDAVLKSLVTELDSKDWVLVCDALNTIRRLSIFHKEEMLHMLEKVILFIVKSLKNPRSAVSKTACMTSADIFSSYNDHTIDQLDLLLTQLLLKSSQDKRFVCEAAEKALVAMTAHVSPALLLPKLQPFLKNRNPRIRAKASTCFSRCVPRLGIEGIREYGIEKLVQAASSQLSDQLPESREAARAVLLELQTVYKKTTNVEPKEEHPEPVTWQIFCQSNLSPLSAQAVIRVTNVAGVAREGLVAGS”, “failed”.
The value for “SGRLFVRNLSYTSSEEDLEKLFSAYGPLSELHYPIDSLTKKPKGFAFVTFMFPEHAVKAYAEVDGQVFQGRMLHVLPSTIKKEASQ” was “not failed”; that for “MLSAYFSGSETGLLSLNKYRLRFLSEQGNKGAKKAEKLLEKPDTLLSFILIFNNLVNISASAIATVIGMRLYGDAGVAIATGLLTFVMLVFSEIFPKTVAAMHAEKVSFFSSHILTSLLKIFYPLVWLMNIFTKSLMQIVGLKLDMQKQVISSEELRSIVSEAGEATPNEQHPQMLLSILDMETVTVDDIMVPRNEIGGINIDDDWRAIMRQLNHAAHNRVVLYKGSLDEQVLGILRVREAFRLLLEKNEFTKETLIRAADEVYFIPESTPLKTQLANFRTNKERIGLVVDEYGDIKGLVTLEDILEEIVGDFTTSTAPSIDKEVIQQSDGSMIIDGSANLRDLNKMFNWELDTEDARTFNGLILEHLEEIPDEGTICEIDGLLITILEVGDNMIKQAKVVKL” was “not failed”; that for “MLLQPSRVRSGGRARWHAVQCAAAVTIGRDHPRHRYTRAMSSPLSCRLGCAACCIAPSISSPIPGMPNGKPAGVACVQLDAQLGCRLFGSPLRPAVCGNLRPSLEMCGTSRKQALSMLAALERATQP” was “failed”.
As to “MSLRDTQTQLRNEMIYSVFVRNYSEAGNFAGVTADLQRIKDLGTDILWLLPINPIGEVNRKGTLGSPYAIKDYRGINPEYGTLADFKALTDRAHELGMKVMLDIVYNHTSPDSVLATEHPEWFYHDADGQLTNKVGDWSDVKDLDYGHHELWQYQIDTLLYWSQFVDGYRCDVAPLVPLDFWLEARKQVNAKYPETLWLAESAGSGFIEELRSQGYTGLSDSELYQAFDMTYDYDVFGDFKDYWQGRSTVERYVDLLQRQDATFPGNYVKMRFLENHDNARMMSLMHSKAEAVNNLTWIFMQRGIPLIYNGQEFLAEHQPSLFDRDTMVADRHGDVTPLIQKLVTIKQLPLLRAADYQLAVVEEGIVKITYRAAGEALTAWIPLKGQVTAVATKLAAGSYQNLLTDGPTEVVDGKLTVDGQPVLIKYVTNTAVTKVADQSNEGHHHHHH”, the protein production result was “not failed”.
As for “METKANYTIVGIFTLIVIAAAFGFVYWMAEFGRGGPTAQLVVRIPGSANGLSVGSPVRFNGIPVGTVRGLAIDRDDPAYSIAFTEVQADAPVFPSTRAVLEIQGLTGAAYIELSGGNKDGERILQKSVESGVPAELTADLSSVTNLLATADKILKRADGAIGELQGFVQDARGPLTQTVRNAEKFSDALAANSDGIKNFIASLSSLSTTVQSVSVRLDGTLTAVENLVKAVDAGKIDSILSNVDKVTKDVASASSDIQGIMETVQSTARNFEAASTEVQTVVKRADELLASVDPAKVSTVVGDVSAATADARDAVANFKRIADDVGARRADIDQAVSDFTEMGRKLNLASSRVDGILAKVDGMLGTDDANSLFAKARETLTSFKAVADNLNARIGPIADNLTRFSSSGLKDFQALIGSTRQTVDNLNNAITNIDRDPQRLIFGGETVKQYDGRTRRLEHHHHHH”, the protein production entry is given as “failed”.
“MQKTDGLADRIWVVLVQPKYQGNIGAVARSMKNSGLSKLIIVGNRPDDEAFARSMGGRQILENAEIVDSLEEIVHRFTIVAGTSSTASSNLKRFRRLPVDPETFWKQMESQTGKVALVFGREDDGLRNEELDLCNYFIYIPGNPDYPVYNLSHAVAIVLYVMYRSYVPSDMIQHESIKPEHEVLLMSNILDI”: the protein production result is given as “not failed”.
The result for “MREVSLRIDRYLVNTRITPNQLTYLMTVCGVLAAPALLVPGIWGAVLGVVAVQLYLLLDCVDGEIARWRKQYSLGGVYLDRVGAYLTDAAVLVGLGLRAADIWGTGRIDWLWAFLGTLAALGAILIKAETDLVGVARHQNGMPPVKEAASEIRSSGMALARRAAGALKFHRLILGIEATLLILVLAIVDQARGDLFFTRLGTAVLAGIALLQTLLHLVSILASSRLK” reads “failed”; that for “THGVVIIDVTKNENKVIYVNRAFERITGYGEQHALGKGLLTLLGSNLEEVNHKRIELAIRESKEETIEMESIKRNGEFYWCEISVAPVKDSF”, “failed”; that for “MLIYGLARLLLFVVLTLIIHSLALLISAPVPLVMSAMLALIVAFPLSMLVFSKLRMNATQAVSQWDAQRKAHKEWVRSELADR”, “failed”.
As to “MEPSAKHLQLQTLLSERHAYLMEGNREAMHQLLSSDFSFIDGQGRQFDAETYLDHYVDPDQIQWSNQISESMVVEVFETTALVQEIVEDHFSYGRSMYIGRFRSVSLYHWANEGWKWHFHQLTPLDPS”, the protein production result is reported as “not failed”.
The value for “MSVFSGFPASPPDAILNLTVLYNADTNPKKVNLGVGAYRDESGKPWILPAVKEAEAIISSDLSKYNKEYPPVAGFPLFLEAAQFLMFGKDSKAAQEGRIASCQSLSGTGSLHIGFEFLHLWMPKAEFYMPSTTWPNHYGIYDKVFNKLKVPYKEYTYLRKDGELEIDFSNTKKDIQSAPEKSIFLFHACAHNPSGIDFTEAQWKELLPIMKEKKHIAFFDSAYQGFATGSFEADAFAVRMFVDAGVEVLVAQSFSKNFGLYGERIGCLHVVHAGVEGSVEKNKALSAAMVSGMTLQIRKTWSMSAIHGAYIVQVIVHDKRLLQMFYDNVKEMSARIHRMRSLLHASLAKRKTPGPGSKGTWDHILTAIGMFTFTGLTPEHVDYLKEKWSIYLVKAGGRMSMCGLTESNCDYVAEAIHDAVTKLPFKK” was “not failed”.
As to “MIMFNYQQTSQSCVKCGKCIPSCTIYNIHPDEVTSPRGFIDLLGAYQRGELELDKNAKDIFEKCFLCTNCTYVCPNLLPTDQVIENVRAEIAQKFGIAWFKRAYFFLLRNRWLMDWGFALGSVFTPLLFKNLPKHQSVKPRFKLPLIGERVFMWLRFKSFMESYPEETLNSDRENPRRVAIFIGCLANYNYTKIGDSLMEILKELRIDAFIPKKQQCCGAPAYFTGDFPTVDKLIKQNVTYFESFIDEVEAIIIPEATCSAMILEDWERFMHNQPEWRERIARLLPKIFIASDWLYHKTDLLKRLEALSVKMDKSITYHDPCHARKVLGVFKEPRALLGANYKIVEMSDPNQCCGFGGVTLQTEKYQYSKKVGIAKTKMIQETGAKIVSAECSACRMQLTNALDHEKIDVEFAHPLELIAEALKARG”, the protein production result is on record as “failed”.

Values taken from a protein production outcome set (Wang et al. 2014).
